The results in this text go back to US20220332804A1 (CSL INNOVATION, published 2022).

Assay in all cases: SPR, KD relative to WT C2;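 also: biacore SPR at 37 °C, anti-C2 mAbs captured via immobilised goat anti-human IgG, C2 alanine or serine surface mutants as analytes, 1:1 model fitted, double-referenced sensograms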
On the technique in general: Surface plasmon resonance follows binding to a sensor surface in real time, without labels.

The target of one test is T1, human C2 D431A (human, UniProt P06681 21-752).
T1 sequence: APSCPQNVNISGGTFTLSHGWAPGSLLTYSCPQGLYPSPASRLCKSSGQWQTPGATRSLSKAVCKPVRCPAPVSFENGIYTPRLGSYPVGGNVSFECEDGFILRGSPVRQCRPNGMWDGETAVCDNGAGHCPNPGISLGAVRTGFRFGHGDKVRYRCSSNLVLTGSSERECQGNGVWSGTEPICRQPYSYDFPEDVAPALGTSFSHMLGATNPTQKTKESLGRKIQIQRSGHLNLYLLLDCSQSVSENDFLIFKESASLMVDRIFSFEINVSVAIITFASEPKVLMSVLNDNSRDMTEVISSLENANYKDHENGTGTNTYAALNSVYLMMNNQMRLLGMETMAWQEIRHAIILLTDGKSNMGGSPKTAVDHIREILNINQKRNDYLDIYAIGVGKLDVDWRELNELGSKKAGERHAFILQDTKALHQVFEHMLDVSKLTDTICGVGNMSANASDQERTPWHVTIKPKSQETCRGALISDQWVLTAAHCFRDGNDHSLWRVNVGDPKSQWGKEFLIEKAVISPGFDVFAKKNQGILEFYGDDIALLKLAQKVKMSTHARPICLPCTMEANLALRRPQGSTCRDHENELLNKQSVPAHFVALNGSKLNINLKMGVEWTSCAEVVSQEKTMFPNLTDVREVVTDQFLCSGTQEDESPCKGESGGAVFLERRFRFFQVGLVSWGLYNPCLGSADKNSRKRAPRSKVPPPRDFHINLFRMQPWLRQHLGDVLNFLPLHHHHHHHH

The target in the next test is T2, human C2 H435A (human, UniProt P06681 21-752).
T2 sequence: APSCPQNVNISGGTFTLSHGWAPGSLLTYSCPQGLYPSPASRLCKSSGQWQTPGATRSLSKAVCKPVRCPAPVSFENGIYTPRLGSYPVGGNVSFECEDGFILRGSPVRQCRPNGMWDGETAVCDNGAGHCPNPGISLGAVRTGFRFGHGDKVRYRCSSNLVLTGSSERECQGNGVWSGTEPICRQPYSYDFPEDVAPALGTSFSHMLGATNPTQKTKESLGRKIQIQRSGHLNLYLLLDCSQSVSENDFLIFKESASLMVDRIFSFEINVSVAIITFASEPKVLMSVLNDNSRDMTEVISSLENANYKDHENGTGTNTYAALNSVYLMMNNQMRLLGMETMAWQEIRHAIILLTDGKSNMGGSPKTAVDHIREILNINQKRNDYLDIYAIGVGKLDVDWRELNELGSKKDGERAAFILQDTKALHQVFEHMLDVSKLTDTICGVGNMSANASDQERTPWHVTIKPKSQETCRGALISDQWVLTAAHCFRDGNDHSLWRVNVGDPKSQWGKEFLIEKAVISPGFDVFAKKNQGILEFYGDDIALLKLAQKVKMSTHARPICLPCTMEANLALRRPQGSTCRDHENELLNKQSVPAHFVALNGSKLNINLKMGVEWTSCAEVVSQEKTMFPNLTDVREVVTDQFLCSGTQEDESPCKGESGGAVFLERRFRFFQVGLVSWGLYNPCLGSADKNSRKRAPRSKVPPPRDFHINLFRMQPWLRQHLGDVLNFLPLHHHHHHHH

The target of another test is T3, human C2 T442A (human, UniProt P06681 21-752).
T3 sequence: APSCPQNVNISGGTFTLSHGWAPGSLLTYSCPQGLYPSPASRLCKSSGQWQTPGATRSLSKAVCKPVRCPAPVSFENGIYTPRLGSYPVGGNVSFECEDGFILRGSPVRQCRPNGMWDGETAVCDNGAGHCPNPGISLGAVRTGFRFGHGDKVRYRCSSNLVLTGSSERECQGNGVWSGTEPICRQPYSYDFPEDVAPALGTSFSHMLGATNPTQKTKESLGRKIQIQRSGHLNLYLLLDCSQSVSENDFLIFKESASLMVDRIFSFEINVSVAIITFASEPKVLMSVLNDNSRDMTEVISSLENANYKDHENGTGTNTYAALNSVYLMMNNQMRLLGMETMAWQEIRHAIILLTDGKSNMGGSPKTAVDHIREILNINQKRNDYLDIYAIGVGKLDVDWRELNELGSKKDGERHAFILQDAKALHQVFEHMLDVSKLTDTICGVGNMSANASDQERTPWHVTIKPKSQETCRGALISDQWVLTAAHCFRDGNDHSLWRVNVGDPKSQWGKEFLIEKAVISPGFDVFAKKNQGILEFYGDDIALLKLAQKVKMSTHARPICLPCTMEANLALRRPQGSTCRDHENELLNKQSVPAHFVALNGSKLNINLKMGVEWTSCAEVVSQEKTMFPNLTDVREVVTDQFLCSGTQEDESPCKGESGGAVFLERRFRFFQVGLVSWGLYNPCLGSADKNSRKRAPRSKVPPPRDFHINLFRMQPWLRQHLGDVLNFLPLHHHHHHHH

The target in a further test is T4, human C2 G677A (human, UniProt P06681 21-752).
T4 sequence: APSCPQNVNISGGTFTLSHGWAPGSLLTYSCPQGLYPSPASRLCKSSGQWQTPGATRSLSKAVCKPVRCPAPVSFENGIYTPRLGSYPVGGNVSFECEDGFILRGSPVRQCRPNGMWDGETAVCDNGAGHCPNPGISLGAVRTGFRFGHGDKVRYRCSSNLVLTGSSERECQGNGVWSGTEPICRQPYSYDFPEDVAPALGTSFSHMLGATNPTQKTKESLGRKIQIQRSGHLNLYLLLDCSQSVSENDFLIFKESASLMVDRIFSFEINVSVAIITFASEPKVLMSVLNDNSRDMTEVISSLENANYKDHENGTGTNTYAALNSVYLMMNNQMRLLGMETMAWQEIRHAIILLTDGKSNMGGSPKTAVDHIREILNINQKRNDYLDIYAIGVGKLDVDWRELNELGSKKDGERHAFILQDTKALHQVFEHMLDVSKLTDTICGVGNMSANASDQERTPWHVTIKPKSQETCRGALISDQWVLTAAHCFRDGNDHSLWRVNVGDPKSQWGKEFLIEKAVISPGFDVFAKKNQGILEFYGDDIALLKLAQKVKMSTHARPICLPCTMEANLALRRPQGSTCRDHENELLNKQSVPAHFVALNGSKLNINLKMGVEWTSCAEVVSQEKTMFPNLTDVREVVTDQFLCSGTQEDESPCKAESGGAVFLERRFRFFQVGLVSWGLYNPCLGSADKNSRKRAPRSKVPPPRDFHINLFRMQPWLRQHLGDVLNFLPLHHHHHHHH

B1: RF16-226 (antibody, human IgG4 S228P, lambda)
heavy: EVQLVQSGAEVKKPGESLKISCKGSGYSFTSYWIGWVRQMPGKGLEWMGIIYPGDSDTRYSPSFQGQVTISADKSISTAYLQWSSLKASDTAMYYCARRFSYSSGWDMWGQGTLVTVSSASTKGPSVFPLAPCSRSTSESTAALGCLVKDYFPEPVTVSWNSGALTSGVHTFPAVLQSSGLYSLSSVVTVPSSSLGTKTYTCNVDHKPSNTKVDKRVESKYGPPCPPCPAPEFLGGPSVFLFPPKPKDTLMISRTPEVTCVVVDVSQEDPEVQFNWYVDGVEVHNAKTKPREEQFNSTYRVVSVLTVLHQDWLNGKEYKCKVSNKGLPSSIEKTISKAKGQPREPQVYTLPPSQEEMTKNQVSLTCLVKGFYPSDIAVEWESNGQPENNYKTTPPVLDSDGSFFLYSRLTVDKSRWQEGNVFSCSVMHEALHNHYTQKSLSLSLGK
light: SYELTQPPSVSVSPGQTARITCSGDALTSKYVAWYQQKSGLAPLLVIYEDTRRPSGIPAKFSGSSSGSVATLTISGAHGDDEADYYCYSTDASGHQRVFGGGTKLTVLSQPKAAPSVTLFPPSSEELQANKATLVCLISDFYPGAVTVAWKADGSPVKAGVETTKPSKQSNNKYAASSYLSLTPEQWKSHRSYSCQVTHEGSTVEKTVAPTECS
notes: pH-dependent anti-C2 antibody from a phage display library; also called WT
With B1, the Fold diff with human C2 D431A is 4 fold; in the test with human C2 H435A, 2 fold; in the test with human C2 T442A, 2 fold; with human C2 G677A, 1 fold.
